Molecular target: LegAS4 (84–532aa), RomA homolog of L. pneumophila strain Philadelphia (L. pneumophila strain Philadelphia, UniProt Q5ZUS4 84-532)
Test: crystal structure
Settings: both partners purified

B1: histone H3 peptide P1 (15-mer, residues 3-17), NH2-TKQTARKSTGGKAPR-COOH (peptide)
peptide: H-TKQTARKSTGGKAPR-OH
notes: also called 15-mer peptide; (3-17)-N-terminal H3 P1 peptide
B1: binds.

B2: histone H3 peptide P2 (12-mer, residues 1-12), NH2-ARTKQTARKSTG-COOH (peptide)
peptide: H-ARTKQTARKSTG-OH
notes: also called 12-mer peptide
B2: binds.
